Sequences and labels used below:
B1: recombinant monoclonal antibody 1D11 (re-cloned, second most abundant VH and VL) (antibody, V domains shown)
VH: QSLVESGGGLVQPEGSLTLTCKASGFSFSSGYDMCWVRQAPGKGLEYIACIDAGDDITHYASWVKGRFTVSKTSSTTVTLQLNSLTVADTATYFCGRFWDLWGPGTLVTVSS
VL: SSVLTQTPSPVSAAVGGTVTINCQSSQSVYDSTWLGWYQQKPGQPPKLLIYKASNLASGVPSRFKGSGSGTHFTLTISDLECDDAATYYCVGGYSGSVDNWAFGGGTEVVVK
B2: recombinant monoclonal antibody 17A8 (antibody, V domains shown)
VH: QSVEESGGRLVTPGTPLTLTCTVSGFPLSSYSMAWVRQAPGKGLEYIGFINTDGSAYYASWAKGRITISKTSTTVELKITSPTTEDTATYFCGTGNIWGPGTLVTVSS
VL: AQVLTQTPSSVSAAVGGTVTINCQASQSVSNNNVLAWFQQKPGQPPKRLIYSALTLDSGVPSRFKGSGSGTHFTLTISGVQCDDAATYYCAGGYDCSSNDCIAFGGGTEVVVK
B3: recombinant monoclonal antibody 28D3 (antibody, V domains shown)
VH: QSVEESGGRLVTPGTPLTLTCTVSGFSLSSYSMGWVRQAPGKGLEYIGMIISNNSTYYASWAKGRITISKTSTTVELKITSPTTEDTATYFCGTGNIWGPGTLVTVSS
VL: AQVLTQTPASVSAAVGGTVTINCQASQSTSNNNALAWFQQKPGQPPKRLIYSALTLDSGVPSRFKGSGSGTHFTLTISGVQCDDAATYYCAGGYDCSSNDCITFGGGTEVVVK
B4: recombinant monoclonal antibody 15E2 (antibody, V domains shown)
VH: QSLEESGGGLFKPTDTLTLTCTVSGIDLSSYAMIWVRQAPGKGLEWIGYIWSSGRIWYASWAKGRFTISRTSTTVDLKLASPTTEDTATYFCARLWDIWGPGTLVTVSS
VL: AQVLTQTPSSVSAAVGGTVTISCQASQSLYNGVNLAWYQQKPGQPPKLLIFGASNLESGVSSRFRGSGSGTQFTLTISGVQCDDAATYYCLGEFSCSSADCLAFGGGTEVVVK
B5: antibody in the supernatant of B cell line 1D11 (antibody, V domains shown)
VH: QSLVESGGGLVQPEGSLTLTCKASGFSFSSGYDMCWVRQAPGKGLEYIACIDAGDDITHYASWVKGRFTVSKTSSTTVTLQLNSLTVADTATYFCGRFWDLWGPGTLVTVSS
VL: SSVLTQTPSPVSAAVGGTVTINCQSSQSVYDSTWLGWYQQKPGQPPKLLIYKASNLASGVPSRFKGSGSGTHFTLTISDLECDDAATYYCVGGYSGSVDNWAFGGGTEVVVK
B6: antibody in the supernatant of B cell line 17A8 (antibody, V domains shown)
VH: QSVEESGGRLVTPGTPLTLTCTVSGFPLSSYSMAWVRQAPGKGLEYIGFINTDGSAYYASWAKGRITISKTSTTVELKITSPTTEDTATYFCGTGNIWGPGTLVTVSS
VL: AQVLTQTPSSVSAAVGGTVTINCQASQSVSNNNVLAWFQQKPGQPPKRLIYSALTLDSGVPSRFKGSGSGTHFTLTISGVQCDDAATYYCAGGYDCSSNDCIAFGGGTEVVVK
B7: antibody in the supernatant of B cell line 28D3 (antibody, V domains shown)
VH: QSVEESGGRLVTPGTPLTLTCTVSGFSLSSYSMGWVRQAPGKGLEYIGMIISNNSTYYASWAKGRITISKTSTTVELKITSPTTEDTATYFCGTGNIWGPGTLVTVSS
VL: AQVLTQTPASVSAAVGGTVTINCQASQSTSNNNALAWFQQKPGQPPKRLIYSALTLDSGVPSRFKGSGSGTHFTLTISGVQCDDAATYYCAGGYDCSSNDCITFGGGTEVVVK
B8: antibody in the supernatant of B cell line 15E2 (antibody, V domains shown)
VH: QSLEESGGGLFKPTDTLTLTCTVSGIDLSSYAMIWVRQAPGKGLEWIGYIWSSGRIWYASWAKGRFTISRTSTTVDLKLASPTTEDTATYFCARLWDIWGPGTLVTVSS
VL: AQVLTQTPSSVSAAVGGTVTISCQASQSLYNGVNLAWYQQKPGQPPKLLIFGASNLESGVSSRFRGSGSGTQFTLTISGVQCDDAATYYCLGEFSCSSADCLAFGGGTEVVVK

The target of the first assay is T1, recombinant VlsE protein (vlsE cassette region of B. burgdorferi B31-5A3) (Borreliella burgdorferi B31, clone …, UniProt O06878). The assay can be described thus: ELISA.
B1: the binding result is given as “binds”.

Take B2: the binding result is “binds”.

As for B3, the binding result is listed as “binds”.

Consider B4, for which the binding result is reported as “binds”.

The next assay has as its target T1, recombinant VlsE protein (vlsE cassette …). The assay can be described thus: ELISA. This is another data set of the same source. For orientation: In an ELISA, binding on a coated surface is turned into a signal by an enzyme label.
For B5, the binding result is recorded as “binds”.

In the case of B6, the binding result is reported as “binds”.

Turning to B7, the binding result is “binds”.

As for B8, the binding result was “binds”.
